Assay results as given in patent US10501502B2, “Allophycocyanin alpha-subunit evolved labeling proteins (smURFPs)” (The Regents of the University of California, priority 2016, dated 2019).
Residue numbers refer to the chain shown, from its start.

Tests used:
[1] = FP purification and fluorescence characterization in vitro (spectra, extinction coefficient, quantum yield); assay type: physicochemical
Experimental: FP genes were expressed on a pBAD vector (Life Technologies) with a polyhistidine tag on the C terminus, cells were lysed with B-PER (Thermo Scientific), and purified using Ni-NTA (Qiagen) puri-fication. PCB (HO-1+PcyA) and BV (HO-1) incorporation in Escherichia coli was performed simultaneously during constitu-tively active FP expression. Extinction coefficient was determined by PCB or BV absorbance as described35,36 (Table 3, smURFP+BV and TDsmURFP+BV, and Table 2) or calculated for the apoproteins by determining the protein concentration by the BCA protein assay (Pierce), and a specific chromo-phore concentration was added (specified in the Purification of FP lacking chromophore and in vitro chromophore incorporation section) to get 1 and 2 chromophore species (Table 5, not including (Escherichia coli)). When FP chromophore (PCB or BV) was expressed in Escherichia coli, the PCB and BV Q band had absorbance that overlapped with detection of BCA or Bradford assay of 562 nm and 592 nm, respectively. We used the previously published protocols35,36, where there was no change of the BV absorbance at 390 nm when free in solution or attached to the FP. smURFP+BV denaturation with 1 M urea caused no change in the BV absorbance at 390 nm, but the Q band was reduced ˜20-fold. Therefore, the extinction coefficient of BV at 390 nm was used to calculate the concentration of holoprotein (FP+PCB or BV) concentration.
(§1) EX and EM spectra were obtained using SPEX Fluorolog fluorometer (Horiba). Absorbance spectra were obtained using UV-VIS Spectrophotometer Cary Eclipse (Varian) or UV-2700 (Shimadzu). Quantum yield was determined relative to Cy5. Incorporation rates of BV on 0.5 μM smURFP was performed by addition of smURFP to PBS alone or with 20% fetal bovine serum (FBS) and mixed by pipetting in a quartz cuvette. Chromophore was added last, mixed by pipetting, and fluorescence was recorded using SPEX Fluorolog fluorometer (Horiba). Photobleaching was characterized on bubbles of purified FP or Cy5 within mineral oil using light from a 150 W xenon arc lamp with 100% light through EX/EM=628(40)/680(30) nm for smURFP, TDsmURFP, and Cy5 or EX/EM=665 (45)/725 (50) nm for IFP 1.4 focused with a 40×, 1.2 numerical aperture C-Apochromat oil-immersion lens on a Zeiss Axiovert 200M inverted microscope. Photobleaching times were normalized to reflect an initial illumination intensity producing 1,000 photons per fluorescent molecule per second as previously described^37.
HO-1 was removed by digesting the pBAD vector (Life Technology) with MscI and PmeI (NEB). smURFP and TDsmURFP were expressed and purified as described above. No chromophore was present on smURFP and TDsmURFP (confirmed by UV, fluorescence imaging, and MS). For predominant fluorescent species+2 chromophores, a ten-fold excess of chromophore was added to smURFP and TDsmURFP. For predominant fluorescent species+1 chromophore, a quarter concentration of chromophore was added to smURFP and TDsmURFP. Chromophore was added in PBS+10% FBS at 37° C. overnight. smURFP+chromophore and TDsmURFP+chromophore were purified using NiNTA (Qiagen) to remove excess or noncovalently attached chromophore.

[2] = In vitro photobleaching of bubbles of purified FP or Cy5 in mineral oil; assay type: physicochemical
Experimental: as §1

Escherichia coli = assay: Fluorescence of FPs expressed in Escherichia coli; assay type: cell-based; settings: for fold brighter than R4-1: expressed in E. coli with HO-1
Experimental: TeAPCα gene (codons optimized for Escherichia coli) was made by GenScript. Mutations were placed by random mutagenesis using GeneMorphII Random Mutagenesis Kit (Agilent Technologies). Screens for mutants that fluoresce with PCB or BV were performed by subcloning into a pBAD vector (Life Technologies) that expressed cyanobacteria Synechocystis HO-1 and Synechocystis PcyA genes for PCB production and Synechocystis HO-1 only for BV production, as previously described^34. Libraries were expressed in TOP 10 Electrocompetent Escherichia coli cells (Life Technologies) with addition of 0.2% arabinose to LB agar plates (FPs were constitutively expressed in Escherichia coli). Fluorescence was imaged on plates using a BioSpectrum AC Imaging System (UVP) with EX/EM=628(40)/690(50) nm for FPs+PCB, EX/EM=685(40)/710LP nm for rounds 4 and 5 FPs+BV, and EX/EM=650(13)/690(50) nm for Cy5-like FPs+BV (rounds 6-12). At round 6, 5-10 of the brightest colonies on each plate were combined in LB+0.2% arabinose, grown ˜18 h, mixture of plasmid DNA was purified, and TOP10 cells were transformed and plated on LB agar plates+0.2% arabinose. Fluorescence was screened on plates (as described above), 10-20 of the brightest colonies were screened in liquid culture fluorescence (FIG. 7a-e), plasmid DNA was purified, and DNA was sequenced. The plasmid DNA of 2-3 of the brightest FPs was chosen for mutagenesis for the subsequent round. When choosing DNA for subsequent mutagenesis rounds, genes with increased and/or novel silent DNA mutations were chosen over other DNA that had the same DNA and/or protein sequence of the previous round. Site-specific mutagenesis was performed using QuikChange Lightning Mutagenesis Kit (Agilent Technologies) to create smURFP (C4S mutation) and smURFP C52S.

[3] = Native PAGE quaternary structure / stoichiometry; assay type: physicochemical
Experimental: Native PAGE was run using NativePAGE Novex Bis-Tris Gel System (Life Technologies) on Native PAGE 4-16% Bis-Tris protein gels (Life Technologies). SDS-denaturing PAGE was run using NuPAGE MOPS SDS running buffer (Life Technologies) and NuPAGE Novex 4-12% Bis-Tris gels (Life Technologies). Precision Plus Protein Dual Color Standards (Bio-Rad) were used as an MW ladder. Zinc blot was performed after running the SDS-PAGE gel using the described method^44. Fluorescence was imaged using a BioSpectrum AC Imaging System (UVP) with EX/EM=535(45)/605(70) nm for tdTomato, EX/EM=650(13)/690(50) nm for smURFP and TDsmURFP, EX/EM=685(40)/710LP nm for IFP1.4 and BV+zinc.

Molecule: Cy5 [reference compound]
- Emission Maximum ([1]; Table 5): 670 nm
- Excitation Maximum ([1]; Table 5): 649 nm
- Extinction Coefficient ([1]; Table 5): 250,000 ^ m^−1cm^−1/chromophore
- Quantum Yield ([1]; Table 5): 25%
- molecular brightness relative to eGFP ([1]; Table 5): 186%
- in vitro photobleaching t50% ([2]; excitation intensity yielding 1,000 photons per s): 22 s
- In vitro photostability t50% ([2]; time to bleach 50% from an initial emission rate of 1,000 photons per s): 22 s

B1: R8-8: evolved APCα FP, SEQ ID NO: 9, with BV (protein)
chain: MKTCEQRVKIATLLSENKKKIVDKASQDLWRRHPDLIAPGGIAFSQRDRALCLRDYGWYLHLITFCLLAGDKGPIESIGLIGIREMYNSLGVPVPAMMESIRCLKEASLSLLDEEDANETAPYFDYIIKAMS
modifications: biliverdin chromophore; smRUFP Variant Polypeptide
- extinction coefficient (EC) [1]: 260,000 M^−1cm^−1
- quantum yield (QY) [1]: 13%
- Molecular Brightnes Relative to smURFP ([1]; Table 4): 104%
- Emission Maximum ([1]; evolved APCα FPs, Table 4): 672 nm
- Excitation Maximum ([1]; evolved APCα FPs, Table 4): 648 nm
- Extinction Coefficient ([1]; evolved APCα FPs, Table 4): 260,000 M^−1 cm^−1
- Quantum Yield ([1]; evolved APCα FPs, Table 4): 13%
- fold brighter than R4-1 (Escherichia coli): 5.8 fold

B2: R11-2: evolved APCα FP, SEQ ID NO: 12, with BV (protein)
chain: B1 chain with K9N, S15T, G82S, D113E
modifications: biliverdin chromophore; smRUFP Variant Polypeptide
- Molecular Brightnes Relative to smURFP ([1]; Table 4): 70%
- Emission Maximum ([1]; evolved APCα FPs, Table 4): 672 nm
- Excitation Maximum ([1]; evolved APCα FPs, Table 4): 642 nm
- Extinction Coefficient ([1]; evolved APCα FPs, Table 4): 190,000 M^−1 cm^−1
- Quantum Yield ([1]; evolved APCα FPs, Table 4): 12%
- fluorescence when expressed in E. coli (qualitative) (Escherichia coli): slightly more fluorescent than R10-10

B3: R10-10: evolved APCα FP, SEQ ID NO: 11, with BV (protein)
chain: B1 chain with K9N, S15T
modifications: biliverdin chromophore; smRUFP Variant Polypeptide
- extinction coefficient (EC) [1]: 200,000 M^−1cm^−1
- quantum yield (QY) [1]: 15%
- Molecular Brightnes Relative to smURFP ([1]; Table 4): 93%
- Emission Maximum ([1]; evolved APCα FPs, Table 4): 672 nm
- Excitation Maximum ([1]; evolved APCα FPs, Table 4): 646 nm
- Extinction Coefficient ([1]; evolved APCα FPs, Table 4): 200,000 M^−1 cm^−1
- Quantum Yield ([1]; evolved APCα FPs, Table 4): 15%
- fold brighter than R4-1 (Escherichia coli): 8.3 fold
- quaternary structure on native gel [3]: homodimer

B4: R3-2 + PCB: evolved APCα FP, SEQ ID NO: 4, with PCB (protein)
chain: MKTGEQRVKIATLLSENEKKIVDKASQDLWRRRPDFIAPGGIAFGQRERALCLRDYGWYLRLITFCLLAGDKDPIESIGLIGIREMYNSLGVPVPGMMESIRCLKEASLSLLDEEDAKETAPYFDYIIQAMS
modifications: phycocyanobilin chromophore; smRUFP Variant Polypeptide
- extinction coefficient (EC) [1]: 74,000 M^−1cm^−1
- quantum yield (QY) [1]: 13%
- Molecular Brightnes Relative to smURFP ([1]; Table 4): 30%
- Emission Maximum ([1]; evolved APCα FPs, Table 4): 648 nm
- Excitation Maximum ([1]; evolved APCα FPs, Table 4): 620 nm
- Extinction Coefficient ([1]; evolved APCα FPs, Table 4): 74,000 M^−1 cm^−1
- Quantum Yield ([1]; evolved APCα FPs, Table 4): 13%
- fluorescence when expressed in E. coli (qualitative) (Escherichia coli): lacked fluorescence with BV

B5: R4-1: evolved APCα FP, SEQ ID NO: 5, with BV (protein)
chain: B4 chain with G45S, G57R, R61H, Q129K
modifications: biliverdin chromophore; smRUFP Variant Polypeptide
- extinction coefficient (EC) [1]: 93,000 M^−1cm^−1
- quantum yield (QY) [1]: 9.0%
- Molecular Brightnes Relative to smURFP ([1]; Table 4): 26%
- Emission Maximum ([1]; evolved APCα FPs, Table 4): 674 nm
- Excitation Maximum ([1]; evolved APCα FPs, Table 4): 647 nm
- Extinction Coefficient ([1]; evolved APCα FPs, Table 4): 93,000 M^−1 cm^−1
- Quantum Yield ([1]; evolved APCα FPs, Table 4): 9.0%
- quaternary structure on native gel [3]: tetramer

B6: R8-9: evolved APCα FP, SEQ ID NO: 10, with BV (protein)
chain: B1 chain with K9N, H33R, A96D, N118K
modifications: biliverdin chromophore; smRUFP Variant Polypeptide
- extinction coefficient (EC) [1]: 175,000 M^−1cm^−1
- quantum yield (QY) [1]: 12%
- Molecular Brightnes Relative to smURFP ([1]; Table 4): 65%
- Emission Maximum ([1]; evolved APCα FPs, Table 4): 672 nm
- Excitation Maximum ([1]; evolved APCα FPs, Table 4): 644 nm
- Extinction Coefficient ([1]; evolved APCα FPs, Table 4): 175,000 M^−1 cm^−1
- Quantum Yield ([1]; evolved APCα FPs, Table 4): 12%
- fold brighter than R4-1 (Escherichia coli): 5.7 fold

B7: R7-7: evolved APCα FP, SEQ ID NO: 8, with BV (protein)
chain: B1 chain with D48E, A96G, N118K, M131I
modifications: biliverdin chromophore; smRUFP Variant Polypeptide
- extinction coefficient (EC) [1]: 250,000 M^−1cm^−1
- quantum yield (QY) [1]: 16%
- Molecular Brightnes Relative to smURFP ([1]; Table 4): 123%
- Emission Maximum ([1]; evolved APCα FPs, Table 4): 676 nm
- Excitation Maximum ([1]; evolved APCα FPs, Table 4): 648 nm
- Extinction Coefficient ([1]; evolved APCα FPs, Table 4): 250,000 M^−1 cm^−1
- Quantum Yield ([1]; evolved APCα FPs, Table 4): 16%
- fold brighter than R4-1 (Escherichia coli): 1.3 fold
